Test results from publication PMC3431625.

How the values were obtained:
[1] = target: Pepsinized collagen type II (UniProt P02459); experiment: ELISA
[2] = target: Bovine collagen type IV (bovine) (UniProt Q7SIB2); experiment: ELISA
Bovine collagen type IV (bovine), sequence (Q7SIB2 28-1669, chain 1 of 2): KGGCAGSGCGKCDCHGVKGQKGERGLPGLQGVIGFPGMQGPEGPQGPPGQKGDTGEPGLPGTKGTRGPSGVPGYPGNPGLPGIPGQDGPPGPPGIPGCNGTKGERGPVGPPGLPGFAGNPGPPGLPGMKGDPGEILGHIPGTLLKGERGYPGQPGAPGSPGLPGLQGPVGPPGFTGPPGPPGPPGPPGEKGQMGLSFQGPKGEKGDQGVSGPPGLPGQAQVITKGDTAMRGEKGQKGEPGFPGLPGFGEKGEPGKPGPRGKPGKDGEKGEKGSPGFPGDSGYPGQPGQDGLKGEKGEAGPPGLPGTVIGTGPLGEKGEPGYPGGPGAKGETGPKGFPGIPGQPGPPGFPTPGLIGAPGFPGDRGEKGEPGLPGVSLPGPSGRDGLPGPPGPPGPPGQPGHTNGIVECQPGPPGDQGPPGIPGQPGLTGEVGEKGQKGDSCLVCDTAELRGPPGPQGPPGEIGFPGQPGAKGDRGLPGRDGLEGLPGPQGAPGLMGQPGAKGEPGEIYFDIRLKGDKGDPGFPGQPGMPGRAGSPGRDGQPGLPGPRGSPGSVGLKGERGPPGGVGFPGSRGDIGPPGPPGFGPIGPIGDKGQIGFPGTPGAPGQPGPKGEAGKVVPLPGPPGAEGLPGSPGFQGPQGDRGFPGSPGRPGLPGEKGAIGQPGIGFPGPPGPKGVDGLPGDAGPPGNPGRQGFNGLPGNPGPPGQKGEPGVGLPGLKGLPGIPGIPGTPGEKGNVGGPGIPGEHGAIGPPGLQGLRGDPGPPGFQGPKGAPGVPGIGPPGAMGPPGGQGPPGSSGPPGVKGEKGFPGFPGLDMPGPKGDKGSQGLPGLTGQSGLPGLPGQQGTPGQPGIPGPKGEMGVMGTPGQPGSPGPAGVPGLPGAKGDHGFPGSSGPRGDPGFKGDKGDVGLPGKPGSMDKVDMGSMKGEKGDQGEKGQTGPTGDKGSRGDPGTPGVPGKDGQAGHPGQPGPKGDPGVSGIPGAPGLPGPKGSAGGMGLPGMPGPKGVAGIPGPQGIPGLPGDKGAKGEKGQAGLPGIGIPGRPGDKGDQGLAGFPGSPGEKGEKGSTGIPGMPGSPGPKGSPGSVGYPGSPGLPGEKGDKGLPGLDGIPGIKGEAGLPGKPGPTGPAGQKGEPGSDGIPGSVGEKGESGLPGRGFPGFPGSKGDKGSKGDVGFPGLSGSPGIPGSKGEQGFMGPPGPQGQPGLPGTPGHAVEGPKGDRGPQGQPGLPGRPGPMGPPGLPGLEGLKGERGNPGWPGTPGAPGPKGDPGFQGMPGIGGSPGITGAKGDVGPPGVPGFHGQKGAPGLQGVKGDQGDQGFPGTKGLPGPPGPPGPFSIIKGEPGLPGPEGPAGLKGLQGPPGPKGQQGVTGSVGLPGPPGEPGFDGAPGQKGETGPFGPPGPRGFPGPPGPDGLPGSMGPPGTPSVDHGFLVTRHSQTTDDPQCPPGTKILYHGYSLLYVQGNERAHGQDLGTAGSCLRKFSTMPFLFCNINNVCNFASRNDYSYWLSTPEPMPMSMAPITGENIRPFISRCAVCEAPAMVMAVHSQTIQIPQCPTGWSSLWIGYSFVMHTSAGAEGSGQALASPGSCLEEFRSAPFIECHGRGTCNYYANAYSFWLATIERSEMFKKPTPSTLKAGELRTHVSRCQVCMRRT
Bovine collagen type IV (bovine), sequence (Q7SIB3 whole entry, chain 2 of 2, further chain): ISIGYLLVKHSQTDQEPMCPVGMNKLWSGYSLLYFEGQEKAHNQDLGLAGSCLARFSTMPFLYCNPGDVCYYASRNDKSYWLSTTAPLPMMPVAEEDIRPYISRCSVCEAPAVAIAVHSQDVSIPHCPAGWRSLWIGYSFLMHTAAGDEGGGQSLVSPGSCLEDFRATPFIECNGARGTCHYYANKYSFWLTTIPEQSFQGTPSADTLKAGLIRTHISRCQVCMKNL

Pepsinized collagen type II, sequence (P02459 26-1487): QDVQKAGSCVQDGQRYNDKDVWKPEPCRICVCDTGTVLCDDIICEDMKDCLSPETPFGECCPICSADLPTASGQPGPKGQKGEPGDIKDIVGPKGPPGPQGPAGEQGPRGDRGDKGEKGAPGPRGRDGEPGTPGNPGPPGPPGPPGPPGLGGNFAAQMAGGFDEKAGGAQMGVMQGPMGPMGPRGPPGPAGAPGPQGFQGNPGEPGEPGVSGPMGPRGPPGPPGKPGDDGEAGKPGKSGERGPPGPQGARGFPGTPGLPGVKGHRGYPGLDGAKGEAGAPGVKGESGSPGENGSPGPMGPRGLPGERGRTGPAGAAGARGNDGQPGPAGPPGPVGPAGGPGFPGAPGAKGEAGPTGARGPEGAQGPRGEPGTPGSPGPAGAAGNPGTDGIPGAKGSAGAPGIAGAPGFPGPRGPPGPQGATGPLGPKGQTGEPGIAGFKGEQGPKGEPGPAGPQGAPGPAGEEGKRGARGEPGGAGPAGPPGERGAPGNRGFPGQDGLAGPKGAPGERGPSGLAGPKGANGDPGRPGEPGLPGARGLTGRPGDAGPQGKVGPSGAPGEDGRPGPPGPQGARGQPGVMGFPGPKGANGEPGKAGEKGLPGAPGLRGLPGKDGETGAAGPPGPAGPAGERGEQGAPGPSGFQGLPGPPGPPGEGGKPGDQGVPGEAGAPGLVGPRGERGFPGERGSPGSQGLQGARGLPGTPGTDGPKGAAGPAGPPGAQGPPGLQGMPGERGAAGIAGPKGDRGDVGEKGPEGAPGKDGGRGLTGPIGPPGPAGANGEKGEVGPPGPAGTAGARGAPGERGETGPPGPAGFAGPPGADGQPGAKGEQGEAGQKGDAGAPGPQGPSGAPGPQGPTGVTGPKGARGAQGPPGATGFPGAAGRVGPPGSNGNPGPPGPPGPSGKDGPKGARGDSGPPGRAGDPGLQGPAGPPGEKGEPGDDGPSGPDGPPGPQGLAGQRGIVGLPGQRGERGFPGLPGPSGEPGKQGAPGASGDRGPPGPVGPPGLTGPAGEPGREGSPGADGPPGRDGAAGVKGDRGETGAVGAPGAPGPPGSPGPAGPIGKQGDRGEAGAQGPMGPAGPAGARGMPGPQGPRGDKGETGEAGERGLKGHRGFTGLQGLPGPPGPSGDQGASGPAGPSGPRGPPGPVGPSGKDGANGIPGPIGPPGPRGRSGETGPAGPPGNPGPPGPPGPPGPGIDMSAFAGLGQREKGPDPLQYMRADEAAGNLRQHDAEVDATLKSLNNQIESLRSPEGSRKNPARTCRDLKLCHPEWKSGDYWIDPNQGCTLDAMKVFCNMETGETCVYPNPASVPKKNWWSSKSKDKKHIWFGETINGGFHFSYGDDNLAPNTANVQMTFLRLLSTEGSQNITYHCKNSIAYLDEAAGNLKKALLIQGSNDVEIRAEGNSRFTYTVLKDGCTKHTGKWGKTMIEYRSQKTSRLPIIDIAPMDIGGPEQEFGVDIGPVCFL

B1: Recombinant bovine opticin (natural protein)
chain: ASLSEEREGDPYAILHLGDYVLSLDNYDEVIDPSNYDELIDYGDQLPQVKGTSLASLTRTRFTQSTEAARTLPSNPTTARPPTLGLLAAPANHGLPTCLICVCLGSSVYCDDADLENIPPLPQTTAYLYARFNRISHIRAGDFKGLTKLKRIDLSGNSISSIDDKALRLLPALRDLILPENKLVALPTLPTSIEVLDVRMNRLQSSGIQPEAFRALEKLQFLYLADNLLDAIPPSLPLSLRSLHLQNNMIETMQRDAFCDAEEHRHTRRPLEDIRLDGNPINLSLFPSAYFCLPRLPTGRFV
Work on B1 yielded a Kd [1] of 40 nM and a Kd [2] of 500 nM.
